Substitutions are numbered along the chain they refer to. One block for each binder: values may come before it.
Target: T1, Interleukin-1 receptor type 1 (IL-1R1) on cells (human, UniProt P14778 18-569)
T1 sequence (looked up): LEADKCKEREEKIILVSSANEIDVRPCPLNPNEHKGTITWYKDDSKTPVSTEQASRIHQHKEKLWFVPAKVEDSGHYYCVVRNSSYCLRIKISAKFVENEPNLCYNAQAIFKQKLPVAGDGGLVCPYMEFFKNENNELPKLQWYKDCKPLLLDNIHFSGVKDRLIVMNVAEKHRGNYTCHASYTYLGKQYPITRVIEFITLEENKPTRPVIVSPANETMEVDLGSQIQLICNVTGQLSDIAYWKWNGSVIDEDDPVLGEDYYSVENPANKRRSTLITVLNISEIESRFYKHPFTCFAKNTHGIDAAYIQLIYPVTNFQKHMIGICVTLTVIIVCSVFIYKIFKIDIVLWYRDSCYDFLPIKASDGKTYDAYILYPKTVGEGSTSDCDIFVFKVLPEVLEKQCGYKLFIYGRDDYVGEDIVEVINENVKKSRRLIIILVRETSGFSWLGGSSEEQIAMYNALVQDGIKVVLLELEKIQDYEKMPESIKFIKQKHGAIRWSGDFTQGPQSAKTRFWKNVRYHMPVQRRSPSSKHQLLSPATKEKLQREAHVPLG
Experiment: cell-based or functional assay

ND50, inhibition of IL-1-induced IL-8 release from MRC-5 cells: ~30 nM
B1: DOM4-130-3 (other)
VL: DIQMTQSPSSLSASVGDRVTITCRASQDIYLNLDWYQQKPGKAPKLLIYGTSNLQSGVPSRFSGSGSGTDFTLTISSLQPEDFATYYCQPSFYFPYTFGQGTKVEIRR

ND50, inhibition of IL-1-induced IL-8 release from MRC-5 cells: ~1 nM
B2: DOM4-130-46 (other)
VL: B1 VL with Y49N, G50F, T51G, N53E

ND50, inhibition of IL-1-induced IL-8 release from MRC-5 cells: ~1 nM
B3: DOM4-122-23 (other)
VL: DIQMTQSPSSLSASVGDRVTITCRASQWIGRELRWYQQKPGKAPMFLIYHASRLQRGVPSRFSGSGSGTDFTLTISSLQPEDFATYYCQQYHGWPLTFGQGTKVEIKR

ND50, inhibition of IL-1-induced IL-8 release from MRC-5 cells: ~10 nM
B4: DOM4-129-1 (other)
VL: B3 VL with W28N, G30D, G93D, W94F

ND50, inhibition of IL-1-induced IL-8 release from MRC-5 cells: ~10 nM
B5: DOM4-122-6 (other)
VL: B3 VL with R56S
